In patent US20240109963A1:

How the values were obtained:
[1] = molecular target: Claudin 18.1 on CHO cells (CHO+ Claudin 18.1) (UniProt P56856); assay: flow cytometry, unpurified culture supernatant on CHO_18.1 cells, anti-c-Myc 9E10 + Avidin-PE; parental CHO in the same table: 1.71 %
[2] = molecular target: Claudin 18.1 on CHO cells (CHO+ Claudin 18.1) (UniProt P56856); assay: flow cytometry, unpurified culture supernatant on CHO_18.1 cells, anti-c-Myc 9E10 + Avidin-PE; parental CHO in the same table: 1.25 %

Claudin 18.1 on CHO cells (CHO+ Claudin 18.1), sequence (P56856 whole entry): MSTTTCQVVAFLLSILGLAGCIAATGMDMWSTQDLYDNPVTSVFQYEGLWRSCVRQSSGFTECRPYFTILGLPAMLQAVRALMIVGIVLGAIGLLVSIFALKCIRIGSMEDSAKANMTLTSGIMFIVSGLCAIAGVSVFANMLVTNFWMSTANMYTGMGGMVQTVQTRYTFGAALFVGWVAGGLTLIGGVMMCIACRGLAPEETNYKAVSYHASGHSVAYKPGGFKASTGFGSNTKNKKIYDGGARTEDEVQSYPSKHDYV

Row | PE-Positive Cells (%) [1] [%] | PE-Positive Cells (%) [2] [%] | Binder
1 | 7.32 | – | Claudin 18.2-3C2 (VHH) VHH: QVQLVESGGGLVQPGGSLRLSCAASGFTFSNYAMYWVRQAPGKGPEWVSVISGGGGVISYADSVKGRFTISRDNAKNTMYLQMNSLKPEDTAVYYCNAQSAVWWENDYWGQGTQVTVSS
2 | – | 6.79 | Claudin 18.2-4G1 (VHH) VHH: QVQLVESGGGVVQTGGSLRLTCEISGAALSSYTMGWFRQAPGKEREFVAAISWGGSITWYADSVKGRFTISRDNAKNTVYLQMNSLKPEDTAVYYCHAEGQFGALSYPKDYWGQGTQVTVSS
